Results reported in IntAct's records for PubMed 17548821.

How the values were obtained:
[1] = target: lrp8_human LRP8 (UniProt Q14114)
[2] = target: vldlr_human VLDLR (UniProt P98155)

Chain of lrp8_human LRP8 (Q14114 whole entry): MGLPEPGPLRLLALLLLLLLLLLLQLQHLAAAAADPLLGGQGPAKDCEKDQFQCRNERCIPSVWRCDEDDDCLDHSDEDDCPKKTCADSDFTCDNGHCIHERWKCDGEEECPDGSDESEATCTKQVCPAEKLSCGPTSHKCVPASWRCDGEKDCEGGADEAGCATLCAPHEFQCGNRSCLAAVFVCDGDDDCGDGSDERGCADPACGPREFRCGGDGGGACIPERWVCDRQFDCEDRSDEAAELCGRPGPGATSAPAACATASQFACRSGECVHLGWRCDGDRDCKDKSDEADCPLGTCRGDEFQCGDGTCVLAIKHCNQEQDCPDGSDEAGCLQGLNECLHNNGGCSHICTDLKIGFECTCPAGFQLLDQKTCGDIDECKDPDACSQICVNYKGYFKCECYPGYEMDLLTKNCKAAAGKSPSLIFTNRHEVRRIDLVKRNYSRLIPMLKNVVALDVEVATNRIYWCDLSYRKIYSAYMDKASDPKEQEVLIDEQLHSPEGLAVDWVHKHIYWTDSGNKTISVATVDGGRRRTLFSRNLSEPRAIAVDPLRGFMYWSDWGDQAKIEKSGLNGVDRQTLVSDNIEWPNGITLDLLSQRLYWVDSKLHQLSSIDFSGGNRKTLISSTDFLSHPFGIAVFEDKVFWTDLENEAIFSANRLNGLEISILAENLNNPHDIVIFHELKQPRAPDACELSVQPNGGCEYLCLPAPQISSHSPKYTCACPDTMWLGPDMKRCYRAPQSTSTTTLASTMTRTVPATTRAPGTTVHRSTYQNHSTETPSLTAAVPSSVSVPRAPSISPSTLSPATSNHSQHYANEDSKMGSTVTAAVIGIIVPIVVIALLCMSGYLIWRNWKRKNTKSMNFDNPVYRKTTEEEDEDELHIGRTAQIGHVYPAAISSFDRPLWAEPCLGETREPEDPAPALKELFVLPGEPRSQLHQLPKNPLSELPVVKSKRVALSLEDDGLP

For Reelin (Mus musculus), Q60841 K2360A, which “effect of a mutation on the interaction” value [1] is on record?
Its value is “disrupting interaction strength”.

With “Reelin (Mus musculus), Q60841 K2360A;K2467A” as the substance, how does the “effect of a mutation on the interaction” value [1] read?
Its value is “disrupting interaction strength”.

For Reelin (Mus musculus), Q60841 K2467A, which “effect of a mutation on the interaction” value [1] is on record?
The value was “disrupting interaction strength”.

And the “effect of a mutation on the interaction” value [2]?
The value was “disrupting interaction strength”.
